Measured values as given in paper doi:10.1101/2025.09.05.674523 (bioRxiv, 2025).
Blank lines part the entries; values can stand above or below the molecule they belong to.

Legend:
Test in all cases: AlphaScreen or HTRF
[1] = molecular target: mEPPIN^L24-K68 (mouse) (UniProt Q9DA01)
[2] = molecular target: full-length recombinant mouse EPPIN (mEPPIN; L24-T134) (mouse) (UniProt Q9DA01)
[3] = molecular target: T1, full-length recombinant mouse EPPIN (mEPPIN; L24-T134) (mouse, UniProt Q9DA01 24-134)
T1 sequence (looked up): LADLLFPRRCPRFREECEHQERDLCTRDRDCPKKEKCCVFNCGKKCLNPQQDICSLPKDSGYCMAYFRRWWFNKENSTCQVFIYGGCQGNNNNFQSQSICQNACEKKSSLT

[4] = molecular target: full-length recombinant mouse SEMG1 (mSEMG1; Q32-G375) (mouse)

- reduction in the specific signal compared to full-length EPPIN [1]: 75%
- EC50 [2]: 23.6 nM
Molecule: full-length recombinant mouse SEMG1 (mSEMG1; Q32-G375) (natural protein)

- EC50 [3]: 8.3 nM
B1: recombinant human SEMG1 (hSEMG1, G26-R281) (domain or fragment, UniProt P04279 26-281, looked up)
chain: GGSKGRLPSEFSQFPHGQKGQHYSGQKGKQQTESKGSFSIQYTYHVDANDHDQSRKSQQYDLNALHKTTKSQRHLGGSQQLLHNKQEGRDHDKSKGHFHRVVIHHKGGKAHRGTQNPSQDQGNSPSGKGISSQYSNTEERLWVHGLSKEQTSVSGAQKGRKQGGSQSSYVLQTEELVANKQQRETKNSHQNKGHYQNVVEVREEHSSKVQTSLCPAHQDKLQHGSKDIFSTQDELLVYNKNQHQTKNLNQDQQHGR

- EC50 [4]: 1 nM
B2: full-length recombinant mouse EPPIN (mEPPIN; L24-T134) (natural protein)
chain: T1 sequence (looked up)
